{"source": "patent US20250382602", "settings_in_all_cases": "nanopore translocation; background mutations not given", "key": {"[1]": {"target": "T1, Dda 1993 K177G K177G (Enterobacteria phage T4) (UniProt P32270)", "T1 sequence": "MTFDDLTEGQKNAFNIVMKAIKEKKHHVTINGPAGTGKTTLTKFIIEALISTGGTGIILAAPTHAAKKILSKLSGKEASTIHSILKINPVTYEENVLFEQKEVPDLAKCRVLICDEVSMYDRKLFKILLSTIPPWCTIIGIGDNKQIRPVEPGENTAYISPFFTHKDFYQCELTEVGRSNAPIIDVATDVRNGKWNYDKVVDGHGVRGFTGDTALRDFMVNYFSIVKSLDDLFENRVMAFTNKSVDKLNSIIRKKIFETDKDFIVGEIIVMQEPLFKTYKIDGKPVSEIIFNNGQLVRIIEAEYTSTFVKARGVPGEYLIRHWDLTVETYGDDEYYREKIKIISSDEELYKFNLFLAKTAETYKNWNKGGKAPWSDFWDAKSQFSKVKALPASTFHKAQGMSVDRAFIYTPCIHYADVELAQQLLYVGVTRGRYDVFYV"}, "[2]": {"target": "T2, Dda 1993 K177H K177H (Enterobacteria phage T4) (UniProt P32270)", "T2 sequence": "T1 sequence with G177H"}, "[3]": {"target": "T3, Dda 1993 K177Y K177Y (Enterobacteria phage T4) (UniProt P32270)", "T3 sequence": "T1 sequence with G177Y"}, "[4]": {"target": "T4, Dda 1993 K177I K177I (Enterobacteria phage T4) (UniProt P32270)", "T4 sequence": "T1 sequence with G177I"}, "[5]": {"target": "T5, Dda 1993 K177L K177L (Enterobacteria phage T4) (UniProt P32270)", "T5 sequence": "T1 sequence with G177L"}, "[6]": {"target": "T6, Dda 1993 K177F K177F (Enterobacteria phage T4) (UniProt P32270)", "T6 sequence": "T1 sequence with G177F"}}, "note": "Where a chain is given by its changes, count along the chain named."}
{"substance": "barcoded 3.6 kb DNA analyte ligated to sequencing Y adaptor", "values": [{"measurement": "activity (bps speed delta vs control)", "setting": "[1]", "result": -27.6}, {"measurement": "activity (bps speed delta vs control)", "setting": "[2]", "result": 10.6}, {"measurement": "activity (bps speed delta vs control)", "setting": "[3]", "result": -43.9}, {"measurement": "activity (bps speed delta vs control)", "setting": "[4]", "result": 43}, {"measurement": "activity (bps speed delta vs control)", "setting": "[5]", "result": 51.4}, {"measurement": "activity (bps speed delta vs control)", "setting": "[6]", "result": -33.4}]}
